In the supplement of paper PMC10567573:

B1: RAD51 (parent)
chain: RFLRMLLRLADEFGVAVVITNQVV
B2: BCL2L13 (parent)
chain: QSLDQEILLKVKTEIEEELKSLDK

Variants of: B1
Assay: protein stability index of a GFP-peptide fusion (GPS, HEK-293T) (PSI 1-6); higher = more stable
Conditions: c terminus: a fixed tail appended
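Further: lentivirally expressed fusions sorted by FACS into six bins by GFP to DsRed ratio, PSI derived from sequencing read proportions per bin multiplied by bin number.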

Protein stability index, by site and new letter:
Q22: G 2.92 | S 2.47 | L 1.68 | I 1.43 | C 2.3 | Y 2.77 | H 1.9 | D 1.65 | K 1.39 | F 1.29 | M 1.65 | P 1.99 | V 2.24 | N 1.85 | E 3.17 | A 1.52 | T 1.44 | R 2.08
R8: D 2.57 | K 2.33 | W 1.83 | M 2.17 | N 1.78 | L 3.02 | V 2.87 | F 2.47 | G 1.46 | C 2.36 | A 1.42 | S 2.96 | I 3.12 | Q 2.09 | H 3.25
E12: I 3.64 | K 2.42 | N 1.68 | P 2.01 | S 2.08 | Q 3.13 | M 2.33 | T 1.46 | D 2.48 | L 2.75 | A 2.02 | C 3.13 | V 1.94 | H 3.24 | F 3.25 | G 1.3 | R 3.5
V18: G 2.45 | L 2.62 | H 3.04 | M 3.82 | P 2.32 | N 3.8 | D 2.79 | C 2.1 | Q 2.87 | E 2.44 | A 3.03 | S 3.17 | R 2.94 | F 1.24 | K 3.09 | W 2.75 | T 3.38 | I 1.87
L9: G 3.55 | F 1.76 | I 2.52 | M 1.54 | K 1.98 | R 1.7 | E 1.65 | Y 2.89 | T 2.51 | S 1.76 | Q 2.88 | D 2.1 | V 2.38 | N 2.37 | P 3.32
V17: A 1.67 | E 2.58 | S 1.36 | R 1.52 | M 2.49 | P 1.86 | H 2.9 | F 2.19 | C 1.06 | G 3.41 | I 3.4 | N 2.35 | Q 1.25 | T 2.11 | W 2.41 | K 2.65 | D 2.06 | Y 2.83 | L 2.96
V24: F 2.68 | K 1.45 | I 3.73 | G 2.11 | L 2.03 | S 1.44 | E 1.41 | R 2.55 | Q 2.83 | Y 1.6 | D 2.48 | W 1.25 | H 3.01 | M 2.4 | A 1.89 | C 2.11 | N 1.86 | P 2.06 | T 1.83
D11: N 1.66 | P 1.85 | T 2.51 | Y 3.81 | K 3.43 | L 2.46 | R 2.85 | A 3.02 | I 2.43 | C 2.06 | S 2.32 | E 1.97 | V 2.46
I19: N 2.67 | H 1.25 | P 1.47 | S 1.95 | L 1.45 | D 2.76 | A 3.02 | Y 2.79 | T 2.84 | Q 1.37 | V 1.63 | W 1.96 | K 2.52 | R 3 | C 2 | F 2.18 | G 1.58
G14: N 2.03 | K 1.96 | C 2.4 | F 4.07 | A 2.83 | H 1.82 | E 1.92 | T 1.94 | Q 1.69 | M 1.74 | L 3.4 | S 1.53 | P 1.33 | V 2.18 | R 2.06 | D 2.97 | Y 3.29
A16: K 2.4 | R 2.25 | P 1.08 | N 3.11 | F 1.55 | C 1.43 | I 2.24 | M 3.12 | D 3.29 | Y 1.93 | T 1.79 | W 2.44 | V 1.34 | Q 1.87 | L 2.2 | H 3.12 | S 2.34
F13: N 1.26 | S 1.59 | W 3.5 | Y 1.72 | E 2.74 | G 2.04 | M 2.21 | K 2.2 | Q 1.61 | P 1.25 | D 3.29 | H 1.86 | R 2.34 | A 1.3 | L 2.56 | T 1.97
T20: W 3.05 | Q 2.26 | S 3.06 | C 1.8 | G 1.98 | F 1.3 | N 1.21 | L 2.3 | I 2.75 | V 2.82 | R 2.34 | K 3.31 | A 2.68 | P 2.72 | E 1.53 | Y 1.97 | D 2.52 | M 1.44
V15: E 2.08 | K 2.75 | H 2.6 | G 1.98 | C 3.16 | R 2.32 | M 1.56 | F 2.82 | L 2.06 | A 1.79 | N 2.31 | Y 1.8 | D 1.77 | P 3.13 | I 2.51 | Q 3.05 | S 3.16 | W 2.43
V23: D 2.64 | R 1.09 | P 2.23 | A 2.66 | C 2.69 | K 2.73 | Y 1.5 | L 2.38 | E 1.9 | N 1.9 | T 1.51 | W 1.98 | S 2.56 | I 3.7 | M 2.37 | H 2.07 | Q 1.98 | F 3.02
N21: Y 2.19 | S 1.19 | R 1.68 | I 1.43 | T 2.02 | K 2.3 | G 3.1 | M 4.31 | V 2.43 | Q 1.9 | C 1.32 | F 2.06 | A 2.52 | H 1.43 | E 1.08 | L 1.97 | D 4.17 | W 1.76 | P 1.7
A10: M 3.27 | V 1.95 | Q 1.82 | Y 3.62 | P 2.33 | E 2.5 | N 2.58 | S 1.65 | K 2.9 | H 1.64 | F 2.21 | L 3.03 | T 3.2 | C 1.79 | R 1.65 | I 3.61 | D 1.97
L7: V 2.15 | R 1.49 | Y 2.13 | W 1.94 | S 1.6 | T 2.6

Variants of: B2
Assay: as above
Conditions: c terminus: a fixed tail appended

Protein stability index, by site and new letter:
I15: K 5.41
D4: Q 4.66
E6: M 3.71
I7: H 5.07 | P 5.83
E17: T 4.1 | W 3.51 | V 2.69 | M 4.08
V11: G 5.36 | W 5.5 | Q 5.54
L19: F 4.76 | Y 5.05 | Q 5.49
S21: H 4.44 | P 4.97 | Q 4.86
Q1: S 4.54 | D 4.78
S2: L 3.95 | H 4.75
L9: N 5.48
E16: V 3.69
E14: H 4.26
K12: R 4.77
L22: R 4.67
L3: S 5.31 | A 5.71
L8: H 5.63
K10: Q 5.35 | R 3.09
E18: S 4.61 | L 3.06
K20: C 4.9 | R 5.18 | N 5.17
